What was measured:
[1] = target: thyroid-stimulating hormone (TSH) receptor (human) (UniProt P16473); assay: flow cytometry, 10 ug/ml TSH-biotin + SA-PE on human PBMC donor 1, myeloid gate; SA-PE alone 4.44, unstained 3.43; * = credible positive shift
[2] = target: thyroid-stimulating hormone (TSH) receptor (human) (UniProt P16473); assay: flow cytometry, 10 ug/ml TSH-biotin + SA-PE on human PBMC donor 2, lymphoid gate; SA-PE alone 3.92, unstained 3.19; no * (no credible shift)
[3] = target: thyroid-stimulating hormone (TSH) receptor (human) (UniProt P16473); assay: flow cytometry, 10 ug/ml TSH-biotin + SA-PE on U937 human monocyte line, all live cells; SA-PE alone 4.88, unstained 4.49; * = credible positive shift
[4] = target: thyroid-stimulating hormone (TSH) receptor (human) (UniProt P16473); assay: flow cytometry, 10 ug/ml TSH-biotin + SA-PE on human PBMC donor 1, lymphoid gate; SA-PE alone 2.50, unstained 2.13; no * (no credible shift)
[5] = target: thyroid-stimulating hormone (TSH) receptor (human) (UniProt P16473); assay: flow cytometry, 10 ug/ml TSH-biotin + SA-PE on human PBMC donor 2, myeloid gate; SA-PE alone 5.92, unstained 4.33; * = credible positive shift
[6] = target: thyroid-stimulating hormone (TSH) receptor (human) (UniProt P16473); assay: cell-based or functional assay

Sequence of thyroid-stimulating hormone (TSH) receptor (human) (P16473 21-764): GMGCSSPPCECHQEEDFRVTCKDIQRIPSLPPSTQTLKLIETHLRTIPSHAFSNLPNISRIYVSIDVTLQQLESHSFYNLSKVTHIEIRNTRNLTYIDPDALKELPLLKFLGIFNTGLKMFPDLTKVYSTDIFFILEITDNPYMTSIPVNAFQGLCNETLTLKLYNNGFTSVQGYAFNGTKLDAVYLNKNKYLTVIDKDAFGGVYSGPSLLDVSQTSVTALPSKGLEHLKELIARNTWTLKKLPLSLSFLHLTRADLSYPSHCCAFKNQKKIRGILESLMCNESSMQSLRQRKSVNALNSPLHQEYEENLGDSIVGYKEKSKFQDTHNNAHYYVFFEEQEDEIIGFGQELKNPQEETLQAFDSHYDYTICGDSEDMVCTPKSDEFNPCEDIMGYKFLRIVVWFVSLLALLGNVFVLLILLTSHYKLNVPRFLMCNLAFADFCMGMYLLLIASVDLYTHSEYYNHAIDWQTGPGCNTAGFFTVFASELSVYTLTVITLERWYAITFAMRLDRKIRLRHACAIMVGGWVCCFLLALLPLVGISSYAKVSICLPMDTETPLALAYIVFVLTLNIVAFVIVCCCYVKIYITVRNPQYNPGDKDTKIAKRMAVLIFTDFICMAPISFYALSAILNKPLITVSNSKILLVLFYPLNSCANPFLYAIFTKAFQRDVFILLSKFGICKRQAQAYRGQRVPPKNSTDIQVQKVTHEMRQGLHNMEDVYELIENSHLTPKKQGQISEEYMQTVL

FL-2 MFI [1] [MFI] | FL-2 MFI [2] [MFI] | FL-2 MFI [3] [MFI] | FL-2 MFI [4] [MFI] | FL-2 MFI [5] [MFI] | luciferase induction (CRE-luciferase reporter, NCI-H295R human adrenal cortex cells) [6] [fold] | Substance
7.78 | 4.23 | 6.34 | 2.63 | 7.26 | – | TSH-biotin (from UniProt P01215 25-116; P01222 21-132) (ligand)
– | – | – | – | – | 15 to 25 | Thyroid stimulating hormone (TSH), purified TSH heterodimer protein (from UniProt P01215 25-116; P01222 21-132) (ligand)

— patent US20050171017A1
